The values that follow come from patent publication US20190225691A1 (SHANGHAI HENLIUS BIOTECH, published 2019).

The target in assay [1] is T1, human PD-L1 on cells (PHA-activated human T cells); PD-L1-transfected CHO-S cells; A375 melanoma cells; … (human, UniProt Q9NZQ7 19-290).
T1 construct: whole, on cells; also called PD-L1 expressing T cells; PD-L1 expressing CHO-S cells
Briefly: flow cytometry on PD-L1 transfected CHO-S cells, anti-human IgG Fc-FITC, MFI. The method, then: Binding of tested de-glycosylated variants was assessed by incubating the PD-L1 expressing CHO-S cells (2E5 cells/well) with the serial-diluted antibodies in FACS buffer (PBS with 1% FBS) at 4° C. for 30 minutes. These cells were washed with flow buffer and then stained with anti-human IgG Fc-FITC (1:500×) at 4° C. for 30 minutes to detect antibody binding on the cell surface. Flow cytometric analyses were performed using CytoFlex (Beckman Coulter Inc.).
(In flow cytometry, cells or beads pass a laser one at a time.)

Assay [2] has as its target T2, human PD-L1 ECD-His (human, UniProt Q9NZQ7 19-238).
T2 construct: extracellular domain; Analyte in all SPR and BLI runs; also called hPD-L1_ECD-His; hPD-L1 ECD-His; not shown: His tag
As to the kind of experiment: BLI, ratio of KD to ref-1. The procedure:
(§1) Briefly, black 96-well plate was prepared with columns containing 200 μL/well of reagents required for determination of affinity. In general, Octet SA sensors were first placed in wells containing 1×Kinetics Buffer (PBS, 0.1% BSA, 0.02% Tween-20, pH 7.4) for 180 seconds to establish a baseline. […] Sensors were then regenerated by 3×5 second incubations in Regeneration Buffer (10 mM Glycine, pH 1.5) followed by a 5 second incubation in 1×Kinetics Buffer each time. Regeneration was repeated before measurement of each association/dissociation cycle. Sensors were then placed in fresh 1×Kinetics Buffer for 180 seconds to establish a baseline. Association was then measured by incubating the sensors for 5 minutes in wells containing hPD-L1-His followed by transferring to wells containing 1×Kinetics Buffer for 10 minutes to measure dissociation. Kinetics (ka, kd, and […] were measured by global fitting four association/dissociation cycles of data obtained from 1:3 serial dilutions of hPD-L1-His from 38.28 nM to 1.42 nM (one association/dissociation cycle for one concentration) with a 1:1 Langmuir binding model. All data were analyzed with Octet Data Analysis Software v.9.0 and representative of two independent experiments performed in duplicate.
(§2) All the data are representative of two independent experiments performed in duplicate.
Background: BLI is a label-free optical method that tracks binding on a fibre tip over time.

The target of assay [3] is T3, recombinant cynomolgus monkey PD-L1_ECD Fc-fusion protein (Sino Biological Inc.) (cynomolgus monkey, UniProt G7PSE7 19-238).
T3 construct: Bought
T3 sequence (G7PSE7 entry or part of it limits assumed): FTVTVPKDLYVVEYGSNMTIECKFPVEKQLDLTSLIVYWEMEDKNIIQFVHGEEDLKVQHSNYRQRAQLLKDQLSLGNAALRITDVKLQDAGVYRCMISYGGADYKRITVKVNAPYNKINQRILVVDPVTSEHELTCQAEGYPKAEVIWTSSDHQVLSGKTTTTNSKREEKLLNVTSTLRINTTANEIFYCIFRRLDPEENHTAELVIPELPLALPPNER
Briefly: ELISA: cynomolgus monkey PD-L1_ECD/Fc coated (9 ng/well), peroxidase-labeled goat anti-human IgG F(ab)'2, TMB, OD450. The procedure:
The recombinant cynomolgus monkey PD-L1_ECD Fc-fusion proteins were purchased from Sino Biological Inc. PD-L1_ECD/Fc (9 ng per well) were immobilized onto 96-well assay plat by incubating overnight at 4° C. Nonspecific binding sites were blocked using 5% skim milk in PBS for one hour at room temperature. After washing plates three times with PBST, indicated concentrations of anti-PD-L1 antibodies and HLX01 (negative control) were incubated with the immobilized proteins for one hour at room temperature. The plates were washed three times with PBST and then incubated for one hour at room temperature with peroxidase-labeled goat anti-human IgG F(ab)′2 (Jackson ImmunoResearch Laboratories) diluted 1/10,000 in PBS. After washing, plates were developed using TMB (eBioscience). The absorbance was read at the wavelength of 450 nm by Varioskan LUX microplate reader (Thermo Scientific).
HLX01 (anti-CD20 mAb) was used as the negative control.
For orientation: ELISA stands for enzyme-linked immunosorbent assay.

The target of assay [4] is T2, human PD-L1 ECD-His. Briefly: BLI Octet RED96, antibody on AHC anti-human-Fc sensor, hPD-L1-His analyte, 1:1 fit. The procedure:
(§3) Briefly, black 96-well plate was prepared with columns containing 200 μL/well of reagents required for determination of affinity. In general, Octet anti-human-Fc sensors were first placed in wells containing 1×Kinetics Buffer (PBS, 0.1% BSA, 0.02% Tween-20, pH 7.4) for 180 seconds to establish a baseline. Sensors were then transferred to wells containing […] anti-PD-L1 variants for 600 seconds to load the anti-human-Fc tips. Sensors were then placed in fresh 1×Kinetics Buffer for 180 seconds to establish a baseline. Association was then measured by incubating the sensors for 3 minutes in wells containing hPD-L1-His followed by transferring to wells containing 1×Kinetics Buffer for 10 minutes to measure dissociation. Sensors were then regenerated by 3X5 second incubations in Regeneration Buffer (10 mM Glycine, pH 1.5) followed by a 5 second incubation in 1×Kinetics Buffer each time. Regeneration was repeated before measurement of each association/dissociation cycle. […] All data were analyzed with Octet Data Analysis Software v.9.0 and representative of two independent experiments performed in duplicate.
as §2

In assay [5] the target is T1, human PD-L1 on cells (PHA-activated …). Briefly: flow cytometry on NCI-H292 human NSCLC cells, biotin-labeled anti-human IgG Fcγ and streptavidin-PE, MFI.
Assay [6] has as its target T2, human PD-L1 ECD-His. Briefly: BLI Octet RED96, biotinylated antibody on SA sensor, hPD-L1-His analyte, 1:1 fit. The method, then: as §1, §2
The target in assay [7] is T1, human PD-L1 on cells (PHA-activated …). Briefly: flow cytometry on A375 human melanoma cells, biotin-labeled anti-human IgG Fcγ and streptavidin-PE, MFI.
For assay [8], the target named is T2, human PD-L1 ECD-His. Briefly: BLI, ratio of KD to parental PL3#7-43. The method, then: as §3, §2
For assay [9], the target named is T4, mouse PD-L1 on B16-F10 melanoma cells (mouse, UniProt Q9EP73 19-290).
T4 construct: whole, on cells
T4 sequence (Q9EP73 19-290): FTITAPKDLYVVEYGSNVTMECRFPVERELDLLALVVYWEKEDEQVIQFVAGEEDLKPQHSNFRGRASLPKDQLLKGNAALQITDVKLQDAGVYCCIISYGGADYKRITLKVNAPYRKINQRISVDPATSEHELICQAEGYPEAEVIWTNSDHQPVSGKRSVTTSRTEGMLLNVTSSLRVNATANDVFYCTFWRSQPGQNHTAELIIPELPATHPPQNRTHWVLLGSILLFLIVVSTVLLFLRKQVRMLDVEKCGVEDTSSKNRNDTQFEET
As to the kind of experiment: flow cytometry on mouse PD-L1 expressing B16-F10 melanoma cells, FITC-labeled anti-human IgG Fcγ, MFI.

Assay [10] concerns the target T1, human PD-L1 on cells (PHA-activated …). As to the kind of experiment: flow cytometry on PHA-activated human T cells, biotin-labeled anti-human IgG Fcγ and streptavidin-PE, MFI.
For assay [11], the target named is T2, human PD-L1 ECD-His. As to the kind of experiment: Fab ELISA screen after panning on hPD-L1-His; coated antigen not named.

Residue numbers refer to the chain shown, from its start. Numbers in names are those of the source.

As usually defined, the EC50 (read off the curve) is the concentration at which the effect is half-maximal. For orientation: Kd means the equilibrium constant for the complex coming apart. The koff is the first-order rate constant of dissociation. The term kon denotes a measure of how fast the partners come together.

T1 sequence (Q9NZQ7 19-290): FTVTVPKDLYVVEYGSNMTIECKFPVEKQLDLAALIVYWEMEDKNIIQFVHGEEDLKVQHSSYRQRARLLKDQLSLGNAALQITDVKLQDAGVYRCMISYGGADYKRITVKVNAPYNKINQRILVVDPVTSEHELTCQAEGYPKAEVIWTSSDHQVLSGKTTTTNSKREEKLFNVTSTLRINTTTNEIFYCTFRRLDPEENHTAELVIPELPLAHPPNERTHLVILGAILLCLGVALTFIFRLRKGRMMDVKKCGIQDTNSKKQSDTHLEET
T2 sequence (Q9NZQ7 19-238): as the sequence (G7PSE7 entry or part of it limits assumed) above, with T33A, S34A, N62S, Q68R, R82Q, L173F, A185T, I192T, L215H counted along it

B1: PL3#7-43 mtIgG1 (antibody, V domains shown)
VH: QVQLVQSGAEVKKPGSSVKVSCKASGGTFSSYPISWVRQAPGQGLEWMGRIIPILGIANYAQKFQGRVTITADKSTSTAYMELSSLRSEDTAVYYCARSRPGYAFGAFDIWGQGTLVTVSS
VL: QSVVTQPPPVSGAPGQRVTISCTGSSSNVGAGYDVHWYQQLPGTAPKLLIYGNSNRSSGVPDRFSGSKSGTSASLAITGLQAEDEADYYCQTYDSSGSARVVFGGGTKLTVLG
modifications: Antibody was biotinylated (NHS-PEG4-biotin, sites not specified) for the Octet assay of Table 11.
notes: N297A mutant human IgG1; also called PL3#7-43 parental mtIgG1
Turning to B1, the “EC50 (read off the curve)” value is around 0.2 µg/mL in assay [1]; around 0.04 µg/mL in [3]; around 0.01 µg/mL in [5]; around 0.002 µg/mL in assay [7]; around 0.005 µg/mL in assay [9]; around 0.008 µg/mL in assay [10]. In addition, in the assay with human PD-L1 ECD-His [2], the “Improvement over ref-1” value was 7.86 fold. The Kd in the assay with human PD-L1 ECD-His [4] turned out to be 345 pM; with human PD-L1 ECD-His [6] it was 313 pM. For the same molecule, the koff with human PD-L1 ECD-His [4] was 0.000212 s⁻¹; with human PD-L1 ECD-His [6], 0.000103 s⁻¹. In addition, the kon in the assay with human PD-L1 ECD-His [4] is 628000 M⁻¹ s⁻¹; in the assay with human PD-L1 ECD-His [6], 330000 M⁻¹ s⁻¹. Besides, in the assay with human PD-L1 ECD-His [8], the “Fold Difference (against parental variant)” value was determined as 1 fold.

B2: PL3#7-19 Fab (Fab, V domains shown)
VH: B1 VH with P101D, I110V
VL: QSVVTQPPPVSGAPGQRVTISCTGSSSNIGGGYDVHWYQQLPGTAPKLLIYGNSTRPSGVPDRFSGSKSGTSASLAITGLQAEDEADYYCQTYDSSLSATVVFGGGTKLTVL
With B2, the binding result in the assay with human PD-L1 ECD-His [11] is recorded as “binds”.

B3: PL3#7-54 Fab (Fab, V domains shown)
VH: B1 VH with N59D
VL: B2 VL with G31Q, G52A, T55N, T100R
As to B3, in the assay with human PD-L1 ECD-His [11], the binding result was “binds”.

B4: PL3#7-43 deglyco2 mtIgG1 (antibody, V domains shown)
VH: B1 VH
VL: B1 VL with N55Q
notes: N297A mutant human IgG1; also called PL3#7-43 deg1yco2
On to B4, for which the “EC50 (read off the curve)” value in [1] was around 0.2 µg/mL. In the assay with human PD-L1 ECD-His [4], this molecule returned a Kd of 395 pM, a koff of 0.000238 s⁻¹ and a kon of 600000 M⁻¹ s⁻¹. For the same molecule, in the assay with human PD-L1 ECD-His [8], the “Fold Difference (against parental variant)” value turned out to be 0.87 fold.

B5: PL3#7-43 Fab (Fab, V domains shown)
VH: B1 VH
VL: B2 VL with I29V, G31A, T55N, P57S, L97G, T100R
For B5, in the assay with human PD-L1 ECD-His [11], the binding result was “binds”.
